Columns and labels:
[1] = molecular target: T1, human clusterin (recombinant monomeric clusterin) (Homo sapiens, UniProt P10909); test: BIAcore kinetic analysis of antibody binding to immobilized clusterin
T1 construct: Recombinant monomeric clusterin was immobilized on a CM3 chip with normal amine coupling method
Experimental: The purpose of these investigations is to determine the kinetics parameters of anti-clusterin antibodies. In particular, to determine whether the humanization of the 16B5 and 21B12 anti-clusterin monoclonal antibody affects the kinetics parameters of its binding to human clusterin. To this end, a kinetic analysis method was developed using the BIAcore 3000. Human clusterin was immobilized on a sensor chip. Full length antibodies or Fab fragments were injected and allowed to interact with the immobilized clusterin. This example described the exemplary antibody 16B5 but the 21B12 exemplary antibody was prepared and tested in a similar manner.
HBST (10 mM Hepes pH 7.4, 135 mM NaCl, 3.4 mM EDTA, 0.005% Tween 20) was used as running buffer for all BIAcore experiments. Recombinant monomeric clusterin was immobilized on a CM3 chip with normal amine coupling method at a flow of 5 μl/min. Surface was activated with 35 μl of a mixture of 50 mM NHS/0.2M EDC. Clusterin in 10 mM Na-acetate pH 4.5 was injected until a desired amount was captured (below 60RU). Unreacted esters were deactivated with 35 μL1 of 1M ethanolamine hydrochloride-NaOH pH8.5. A control surface was prepared by injecting NHS/EDC and ethanolamine in the same manner.
Kinetics analysis was conducted at a flow of 50 μl/min. Full length antibodies (mouse or humanized) or Fab were diluted in HBST. Concentration range was from 1.953-31.25 nM for the full length antibodies and 15.625-250 nM for the Fab. Each concentration was injected over the clusterin and a control surface for 5 min followed with a 5 min dissociation wash. The clusterin surface was regenerated between each antibody injection with 50 μl of 20 mM HCl.

PANC-1 cells = test: Transwell Matrigel migration of TGFβ-stimulated pancreatic cancer cells; format: cell-based, human; conditions: 24 h incubation
Experimental: FIG. 12. H16B5 inhibits the migration of pancreatic cancer cell lines. PANC-1 cells were seeded in serum-free medium in the upper chamber of a 24-well Transwell plate containing a Matrigel barrier. The lower wells were filled with medium containing 10% FBS as a chemo-attractant. After a 24 h incubation in the presence or absence of TGFβ and/or h16B5 (as indicated), the number of cells in the Matrigel layer were stained and counted.
(§1) Tumors derived from 4 different human pancreatic cell lines were obtained which were fixed in formalin, embedded in paraffin, and section on glass slides. Immunohistochemistry was conducted with h16B5 antibody to determine if tumors derived from this cancer indication expressed clusterin. The tumors were derived from Aspc-1, BxPC-3, PANC-1, and MiaPaCa-2 all of which were derived from pancreatic cancer patients (ATCC, Manassas, Va.). Paraffin-embedded epithelial pancreatic tumor samples were placed on glass slides and fixed for 15 min at 50° C. Deparaffinization was conducted by treating 2× with xylene followed by dehydration in successive 5 min washes in 100%, 80%, and 70% ethanol. The slides were washed 2× in PBS for 5 min and treated with antigen retrieval solution (citrate-EDTA) to unmask the antigen. […] H16B5-reactive clusterin was detected by incubating with biotin-conjugated human anti-kappa followed by streptavidin-HRP tertiary antibody. […]

[2] = tested on: BRI-JM01 mouse mammary carcinoma cells; test: internalization of fluorescently labelled secreted clusterin; format: cell-based; conditions: h16B5 10 μg/ml, labelled clusterin 250 ng/ml
Experimental: FIG. 13. Secreted clusterin is internalized in cancer cells. Recombinant human clusteirn was expressed in 293-6E cells, purified, and labelled with Alexa Fluor 488 using a commercial labelling kit (Invitrogen). BRI-JM01 mouse mammary carcinoma cells were seeded on coverslips and treated with 250 ng/ml of labelled secreted clusterin. At the indicated times, the cells were washed with ice-cold PBS and fixed in 2% paraformaledyhyde. The slides were mounted with Antifade Gold and images were generated with a fluorescence microscope.
FIG. 14. H16B5 inhibits the internalization of secreted clusterin in cancer cells. The experiment was performed as described for FIG. 13. H16B5 was added at 10 μg/ml.
In order to begin to address this question, cell-based experiments were undertaken to determine if secreted clusterin interacted with cancer cells directly or via other secreted factors in the cell medium. In order to measure this, secreted clusterin was fluorescently labelled and incubated with BRI-JM01 mouse mammary carcinoma cells. […] As shown, the internalization increases over time in manner that is consistent with a receptor-mediated endocytic pathway. Furthermore, the punctate and perinuclear pattern of staining that results after 24 hours (see white arrows in FIG. 13) that is often observed in proteins that are internalized along the endosomal pathway. […]

clusterin = molecular target: T2, clusterin (Homo sapiens, UniProt P10909); test: immunohistochemistry on tumors derived from human pancreatic cancer cell lines; format: binding; conditions: 5 μg/ml, 1 h at room temperature
T2 construct: from tissue; host or cells: formalin-fixed, paraffin-embedded xenograft tumours of Aspc-1, BxPC-3, PANC-1 and MiaPaCa-2 cells grown in SCID mice
T2 sequence (P10909 23-449): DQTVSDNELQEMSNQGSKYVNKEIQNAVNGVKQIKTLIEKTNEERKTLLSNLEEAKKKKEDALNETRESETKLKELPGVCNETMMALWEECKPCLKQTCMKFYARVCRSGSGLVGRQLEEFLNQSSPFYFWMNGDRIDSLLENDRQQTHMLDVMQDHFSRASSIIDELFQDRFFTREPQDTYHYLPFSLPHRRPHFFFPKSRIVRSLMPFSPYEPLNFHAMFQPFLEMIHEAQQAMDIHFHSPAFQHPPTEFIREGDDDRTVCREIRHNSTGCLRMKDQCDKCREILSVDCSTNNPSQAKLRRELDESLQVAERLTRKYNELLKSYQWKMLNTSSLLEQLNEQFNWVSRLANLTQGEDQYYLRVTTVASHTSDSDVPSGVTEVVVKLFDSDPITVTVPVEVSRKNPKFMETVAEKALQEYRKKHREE
Experimental: FIG. 11. Clusterin is expressed in human pancreatic tumors. Tumors derived from pancreatic cancer cell lines (as indicated) were grown in SCID mice, harvested, fixed in formalin, sections and examined using immunohistochemistry with h16B5. Positive staining was visualized by standard methods using a HRP-conjugated secondary antibody. The negative control was performed under identical conditions with an isotype control antibody.
as §1

T1 sequence (P10909 23-449): as above

h16B5: humanized anti-clusterin IgG2 antibody, heavy chain SEQ ID NO.:9 and light chain SEQ ID NO.:10
kinetics parameters compared with the parent mouse antibody ([1]; full length vs full length, Fab vs Fab): very similar | KD of the interaction with immobilized human clusterin ([1]; stated in words): low nM range | migration of TGFβ-stimulated cells into the Matrigel (PANC-1 cells): severely inhibited | internalization of secreted clusterin into JM01 cells [2]: blocked | staining for clusterin expression in Aspc-1, BxPC-3, PANC-1 and MiaPaCa-2 derived tumors (clusterin): stained positive
